Laboratory results reported in the supplement of paper PMC9170038.

System: MS2 coat protein
Assay: apparent KD of MS2 coat protein; designed switch direction (-1 OFF switch, 1 ON switch): -1; higher = weaker reporter binding
In short: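 Normalised cluster fluorescence was curve-fitted, and each design's median over clusters is its apparent KD. Before this, SNAP-549-labelled MS2 coat protein was titrated from 0.7 or 1.5 nM, doubling to 3 µM, over RNA switches transcribed on Illumina chips by stalled E. coli RNA polymerase. Titrations had no input, 200 uM small-molecule ligand, or an oligonucleotide input, and steps lasted 0.8–1.5 h (lowest) to 10–20 min (highest).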

[1] = input ligand: microRNA oligo, concentration not stated
[2] = Eterna round: R95, input ligand: microRNA oligo, concentration not stated

Row | Sequence | apparent KD of MS2 coat protein (input ligand: FMN 200 uM) | apparent KD of MS2 coat protein (input ligand: none) | apparent KD of MS2 coat protein [1] | apparent KD of MS2 coat protein [2]
1 | UGAAUGUCAGGAUAUCGUGCAUACAACGAAAGUUCUAUGUGCGAGAAGGGACAUGAGGAUCACCCAUGUCUUCG [Omei Ex4 A15] (Eterna round: R97, puzzle: Exclusion 4) | 50.7 nM | 18.3 nM | – | –
2 | UUAAAUCAUGUAGGAUAUGCGUGGAGAAGCUAUGCAGAAGGACAUGAGGAUCACCCAUGUGCUUCCGUCUGAGAACAGACGGUA [Mat - Exclusion NG 1 - Mod of JL - D13] (Eterna round: R96, puzzle: Exclusion NG 1) | 210 nM | 45.7 nM | 49.9 nM | –
3 | GUUUUGAGACGGAGAUCCGACAUGAGGAUCACCCAUGUCUCACAAGCUUUUUGCUCGUCUUAUACUCCUCUGUUCUC [Elimod 44 - Jieux - Sensor, turn-off variant 1] (Eterna round: R97, puzzle: Sensor, turn-off variant 1) | 17 nM | 17.6 nM | – | –
4 | AAACCCGCGCGAGGAUAUCACAUGAGGAUCACCCAUGUGGCACUCCGUCACCGGGCAGUCCCGAGUGAGAAGGUGCAGGCGGAA [Entereis] (Eterna round: R96, puzzle: Exclusion NG 2) | 27.5 nM | 23.4 nM | 32.4 nM | –
5 | CCAAGAUAGGAAGGAUAUUGUACAUGAGGAUCACCCAUGUAAUAAAUGAGGAUCACGGAUGUAGACAAGAAGGUCCGGAUAAGC [Ostracism 5 - Jieux - Exclusion NG 2] (Eterna round: R96, puzzle: Exclusion NG 2) | 84.1 nM | 45.1 nM | 25.1 nM | –
6 | ACAUGAGGAUCACCCAUGUACACGUAAUGGCUCAUGUAGAGUGAGGAUAUGUGAGACGAACGAGCACAGAAGGCACAAGACAGG [Deportation 10 - Jieux - Exclusion NG 3] (Eterna round: R96, puzzle: Exclusion NG 3) | 38.3 nM | 34.8 nM | 23.8 nM | –
7 | UAUUAUUGCAAGGAUAUGCUUUUUAUUUCUUUUGCAGAAGGUGCAACAUGAGGAUCACCCAUGUUUCCGGGUAU [JR_E6_Sub033] (puzzle: Exclusion 6) | – | – | – | 20.4 nM
8 | CGUCUGUCAGGAUAUACUUACGUAGACAUGAGGAUCACCCAUGUGACGUGGGACUAGUGAGUAGAAGGGACGAACA [EX5 #74] (Eterna round: R97, puzzle: Exclusion 5) | 68.4 nM | 46.7 nM | – | –
9 | AGCUGUGGCCGAGGAUAUCUACAUGAGGAUCACCCAUGUGGGUGAAAUAUCGGGAAAACCUCGAUGGAGAAGGCGGUCUCAGCA [Eli eng2 - 046] (Eterna round: R96, puzzle: Exclusion NG 2) | 849 nM | 263 nM | 234 nM | –
10 | GUGAAGUGAGGAUAUACGAGAGAGGCUGAACCUGGAGAGAAGUAGAAGGCACAUGAGGAUCACCCAUGUUAGGA [JR_Exclu4_Sub021] (puzzle: Exclusion 4) | – | – | – | 38 nM
11 | GAGUGACAUGAGGAUCACCCAUGUGAGGAUAUCGGACGGACCAAAUUAACAAUAAAUGCGAGAAGGCACAUCGG [Exclusion 1 V13] (puzzle: Exclusion 1) | – | – | – | 55.4 nM
12 | AAACCAAUAGUCAGGAUAUCUUAGUCGCGGAUGUGGGAGAAGGGACAUGAGGAUCACCCAUGUGGGAGUAUGUG [Eternabot (L1) Solution 19] (Eterna round: R97, puzzle: Brourd's mod of Exclusion 4) | 116 nM | 122 nM | – | –
13 | GUCAGCUCGUGAGGAUAUACAUGCGUGCUUCGGCACGAAUUUAAGAUCACAUGAGGAUCACCCAUGUAGAAGGUACGAGCUGAC [ENG2/3-C1] (Eterna round: R96, puzzle: Exclusion NG 2) | 632 nM | 387 nM | 646 nM | –
14 | AAAAAGGCAGGAUAUACGAGUCAAAGAAAAGACAAAAAGGGACAUGAGGAUCACCCAUGUAGAAGGGCCAAAAA [Fiskers exclusion D2 62% 4] (Eterna round: R96, puzzle: Exclusion 2) | – | – | 31.9 nM | –
15 | GCUCCAGGAGGAUAUGCAUUCGAAAACAUGAGGAUCACCCAUGUAGGUGUCCACGUGCGAGCAGAAGGCCUAAAAC [Riqu] (Eterna round: R97, puzzle: Exclusion 5) | 286 nM | 646 nM | – | –
16 | GAAACCAGAGGAUAUGCGAAUAAAUAAAACUUUUUUUUUUAACAUGAGGAUCACCCAUGUAGAAGGCUGCAAAU [Ex2 #34] (Eterna round: R97, puzzle: Exclusion 2) | 42.2 nM | 32.7 nM | – | –
17 | UUUAGUUUAGGAUAUGUAGAUUUUAACAUGAGGAUCACCCAUGUAGAUCCUGAAUUAACUACAGAAGGAAACAUUU [Mod of Brourd 13 - Jieux - Exclusion 5] (Eterna round: R97, puzzle: Exclusion 5) | 514 nM | 123 nM | – | –
18 | CCGGAAAUACAGGAUAUAGGAGUCGAUAGACUCCUAGAAGGGUAUACAUGAGGAUCACCCAUGUUCCUUACCGG [Fiskers Ex 6 - 72] (puzzle: Exclusion 6) | – | – | – | 36.9 nM
19 | CCCACAAGCUUUUUGCUCGACAUGAGGAUCACCCAUGUUGAAUGGGUUAUGUGUGUGUGAUACAUAUAUAUGGUCCU [-25.6, -50.5 kcal, A 23%] (Eterna round: R97, puzzle: Sensor, turn-off variant 1) | 201 nM | 207 nM | – | –
20 | UAAUAACAUGUAGGAUAUGCGUGGCGAAGCUAUGCAGAAGGACAUGAGGAUCACCCAUGUUAAAGCGUCUGAGAACAGAUGCGA [Mat - Exclusion NG 1 - Mod of JL - D98] (Eterna round: R96, puzzle: Exclusion NG 1) | 165 nM | 30.5 nM | 24.9 nM | –
21 | GUGCCGCGAGGAUAUACAGACGGGUCCAGUACGUGUCUGGGACUUGAGGAUCACCCAAGUAGAAGGCGUCUCAG [salish99_ex2_r4_613] (Eterna round: R97, puzzle: Exclusion 2) | 39.9 nM | 44.6 nM | – | –
22 | GCCUACGCAGGAUAUGUCCAGGGAAACAUGAGGAUCACCCAUGUGGAGUGGACUCGGGUUGCAGAAGGGCGGGCAC [Eternabot (Original) Solution 3] (Eterna round: R97, puzzle: Exclusion 5) | 21.2 nM | 16 nM | – | –
23 | AUAUUGUGAGGAUAUGAACUUAGUAACGAAAGAUACUAAGUUCAGAAGGCACAUGAGGAUCACCCAUGUUUCUC [Long static hairpin v11] (Eterna round: R97, puzzle: Exclusion 4) | 596 nM | 68.1 nM | – | –
24 | CGAUCCGUAGAGGAUAUAGGACGUCAUAGCGAUUUAGAAGGCUACACAUGAGGAUCACCCAUGUACAUUUCAUA [Eternabot (L1) Solution 60] (Eterna round: R97, puzzle: Exclusion 6) | 18.9 nM | 18.1 nM | – | –
25 | GUAGAGUCAGGAUAUACAAGAUCGAAAGAUCAAAGAUCCAUACAUGAGGAUCACCCAUGUAGAAGGGACUCUAC [Eli x2 4.10] (Eterna round: R97, puzzle: Exclusion 2) | 73.5 nM | 22.4 nM | – | –
